Consider two molecules from article PMC6983367 (Proceedings of the National Academy of Sciences of the …, 2020).

This test has as its target bovine mitochondrial F1-ATPase β subunit (His-tagged) (bovine, UniProt P00829 47-528). Description: dilution and ultrafiltration.

Chain of bovine mitochondrial F1-ATPase β subunit (His-tagged) (P00829 47-528): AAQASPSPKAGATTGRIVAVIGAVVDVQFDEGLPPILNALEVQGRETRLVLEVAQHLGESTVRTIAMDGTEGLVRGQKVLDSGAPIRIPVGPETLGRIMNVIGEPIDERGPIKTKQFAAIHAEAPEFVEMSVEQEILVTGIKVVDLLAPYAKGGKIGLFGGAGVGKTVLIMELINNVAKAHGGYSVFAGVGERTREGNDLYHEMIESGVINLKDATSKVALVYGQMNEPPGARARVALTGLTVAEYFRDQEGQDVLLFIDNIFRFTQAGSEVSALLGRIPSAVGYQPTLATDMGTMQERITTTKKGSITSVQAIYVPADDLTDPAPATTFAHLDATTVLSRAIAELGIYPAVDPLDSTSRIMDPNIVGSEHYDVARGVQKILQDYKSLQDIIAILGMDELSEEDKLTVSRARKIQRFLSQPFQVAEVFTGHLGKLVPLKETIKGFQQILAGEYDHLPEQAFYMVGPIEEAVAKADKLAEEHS

B1: bovine mitochondrial F1-ATPase γ subunit (γA99C, γS191C) (natural protein)
chain: ATLKDITRRLKSIKNIQKITKSMKMVAAAKYARAERELKPARVYGVGSLALYEKADIKTPEDKKKHLIIGVSSDRGLCGAIHSSVAKQMKSEAANLAACGKEVKIIGVGDKIRSILHRTHSDQFLVTFKEVGRRPPTFGDASVIALELLNSGYEFDEGSIIFNRFRSVISYKTEEKPIFSLDTISSAESMCIYDDIDADVLRNYQEYSLANIIYYSLKESTTSEQSARMTAMDNASKNASEMIDKLTLTFNRTRQAVITKELIEIISGAAALD
B1: the binding result is “binds”.

B2: bovine mitochondrial F1-ATPase ε subunit (natural protein)
chain: MVAYWRQAGLSYIRYSQICAKAVRDALKTEFKANAMKTSGSTIKIVKVKKE
In the case of B2, the binding result was “binds”.
